The results in this text go back to US20210188948A1.

What all share (experiment): cell-based or functional assay
In assay [1] the target is West Nile virus (WNV) reporter virus particles (RVPs) (West Nile virus).
The target in assay [2] is DENV1 reporter virus particles (RVPs) (Dengue virus serotype 1).
Assay [3] deals with DENV3 reporter virus particles (RVPs) (Dengue virus serotype 3).
Assay [4] addresses DENV4 reporter virus particles (RVPs) (Dengue virus serotype 4).
Assay [5] addresses Zika virus (ZIKV) reporter virus particles (RVPs) (Zika virus).

For the substance WNV-specific mAb CR4354 (antibody), the IC50 (neutralization) in assay [1] is 7 ng/mL.

For monoclonal antibody C10, the IC50 (neutralization) in assay [2] was 352 ng/mL; in assay [3], 753 ng/mL; in assay [4] it was 38 ng/mL; in assay [5], 38 ng/mL. The percent neutralization in assay [2] was 52%; in assay [3], -95%; in assay [4], 98%; in assay [1] it was -195%; in assay [5], 99%.

Turning to monoclonal antibody E16, the percent neutralization in assay [2] was -303%; in assay [3], -415%; in assay [4], -177%; in assay [1] it was 99%; in assay [5] it was -38%.
